Assay results: patent US12029792B2, “Stereocomplexes for the delivery of anti-cancer agents” (priority 2018, dated 2024)

Experiments:
[1] = system: CNE nasopharyngeal tumor; experiment: Subcutaneous CNE nasopharyngeal tumor model; format: in vivo, mice; settings: four injections once per week; 4 mg/kg DM1 (complex also 26 mg/kg DTX)
Procedure: Antitumor efficacy and toxicity for the stereocomplex and DM1-containing prodrug were assessed in a subcutaneous CNE nasopharyngeal tumor model when the treatment is delivered via intravenous injection. Cell suspensions were injected subcutaneously on the backs of mice to establish the tumor model. When tumor volume reached approximately 100 mm^3, groups of tumor bearing mice (n=5) were injected with the complex through the tail vein.

[2] = system: MiA PaCa-2 pancreatic tumor; experiment: Subcutaneous MiA PaCa-2 pancreatic tumor model; format: in vivo, mice; settings: four injections for D-DM1, two injections for the stereocomplex
Procedure: In vivo antitumor efficacy of the complex was assessed in a subcutaneous MiA PaCa-2 pancreatic tumor model. MiA PaCa-2 cell suspensions were injected subcutaneously on the backs of mice to establish the tumor model. When tumor volume reached approximately 140 mm^3, groups of tumor bearing mice (n=5) were injected through the tail vein on day 1 and day 14 of an approximately 40-day trial.
Antitumor efficacy and toxicity for the stereocomplex and DM1-containing prodrug were assessed in a subcutaneous MiaPaCa-2 pancreatic tumor model. MiA PaCa-2 cell suspensions were injected subcutaneously on the backs of mice to establish the tumor model. When tumor volume reached approximately 140 mm^3, groups of tumor-bearing mice (n=5) were injected with treatment through the tail vein.

[3] = Tolerance of formulations in mice without tumors; format: in vivo; settings: healthy mice, tail vein days 1, 8, 15, 22
Procedure: Healthy mice (n=5 for each treatment group) were injected on days 1, 8, 15, and 22 of a 28-day trial in the tail vein with either the DM1-containing prodrug at 4 mg/kg, the DM1-containing prodrug plus mPEG-PLLA at 4 mg/kg, or the stereocomplex with 4 mg/kg DM1 and 27 mg/kg DTX per injection and body weight was monitored to determine tolerance of the treatments. […] Healthy mice (n=5 for each treatment group) were injected with complex at 3.6 mg/kg DM1 once/week for total three injections, at 5 mg/kg DM1 once/two weeks for total two injections and at 7 mg/kg DM1 only once, respectively.

[4] = In vitro release of DM1 by dialysis with or without GSH; format: physicochemical
Procedure: The release of poly-DM1 was performed by dialysis in phosphate buffered saline (pH 7.4, containing 0.2% w/v polysorbate 80) with or without 10 mM glutathione (GSH). Briefly, 1 mL of the poly-DM1 formulation with the concentration of DM1 adjusted to 0.5 mg/mL by PBS was placed in a dialysis bag (MWCO=3.5k Da), which was sealed. After being immediately immersed in 10 mL release medium, the sample was incubated at 37° C. At scheduled time intervals (4, 8, 24, 48 h), 1 mL of the external release medium was taken out and replenished with an equal volume of fresh medium. All released samples were freeze-dried and the amount of released DM1 was determined using HPLC measurements as described previously.
Release of DM1 from the stereocomplex over time, with and without glutathione (GSH) was measured at pH 7.4; results are presented in FIG. 16B. DM1 is released from the isolated prodrug most quickly in the presence of GSH (squares) and more slowly from the stereocomplex (circles). In the absence of glutathione, DM1 is essentially not released from either the isolated prodrug or the complex (triangles and inverted triangles at 0% cumulative release). Thus, conjugation of DM1 with a redox-sensitive disulfide linker prohibits premature release of DM1 without GSH.

## mPEG-PDLA-SS-DM1 [D-DM1]
[1]
  tumor volume: tumor volume increased significantly
[2]
  antitumor effect (tumor volume): almost the same antitumor effect
  toxicity: mouse death and body weight: induced mouse death and obvious body weight decrease
[3]; 4 mg/kg DM1
  tail swelling and ulceration: two mice showed tail swelling and ulceration on days 8-14
[3]; 4 mg/kg DM1 (stereocomplex also 27 mg/kg DTX), 28-day trial
  Body weight: increased slightly
[4]; pH 7.4, in the absence of glutathione
  cumulative release of DM1: 0%
[4]; pH 7.4, in the presence of GSH (10 mM)
  Release of DM1 over time: most quickly
